According to publication PMC3477590:

What was measured:
[1] = target: cellular RBX1 (Fig. S7) (human) (UniProt P62877)
CFP-RBX1^RING (human) = CFP-RBX1^RING (human) (UniProt P62877); test: FRET or BRET
[2] = target: CFP-RBX1-CUL1^CTD (human) (UniProt P62877); test: FRET or BRET
CFP-RBX1-CUL1^CTD~NEDD8 = CFP-RBX1-CUL1^CTD~NEDD8 (UniProt P62877); test: FRET or BRET
CFP-RBX1-CUL1^CTD~NEDD8, sequence (P62877 whole entry, chain 1 of 3): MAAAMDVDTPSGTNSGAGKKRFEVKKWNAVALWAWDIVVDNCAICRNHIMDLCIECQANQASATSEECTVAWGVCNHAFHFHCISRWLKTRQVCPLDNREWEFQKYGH
CFP-RBX1-CUL1^CTD~NEDD8, sequence (Q13616 411-776, chain 2 of 3, further chain): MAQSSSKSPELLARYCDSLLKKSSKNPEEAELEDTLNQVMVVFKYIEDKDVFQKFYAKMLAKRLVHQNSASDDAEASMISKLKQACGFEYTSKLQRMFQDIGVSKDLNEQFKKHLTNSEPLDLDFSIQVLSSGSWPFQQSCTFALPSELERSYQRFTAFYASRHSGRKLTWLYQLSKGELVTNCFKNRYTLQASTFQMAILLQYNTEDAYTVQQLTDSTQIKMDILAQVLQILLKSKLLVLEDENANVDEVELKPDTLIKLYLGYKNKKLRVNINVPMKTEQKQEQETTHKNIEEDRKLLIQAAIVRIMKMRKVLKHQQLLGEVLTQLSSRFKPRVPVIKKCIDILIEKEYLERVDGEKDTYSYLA
CFP-RBX1-CUL1^CTD~NEDD8, sequence (Q15843 1-76, chain 3 of 3, further chain): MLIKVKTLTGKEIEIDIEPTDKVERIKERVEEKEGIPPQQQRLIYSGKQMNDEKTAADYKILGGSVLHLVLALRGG

GLMN-YFP, sequence (Q92990 whole entry): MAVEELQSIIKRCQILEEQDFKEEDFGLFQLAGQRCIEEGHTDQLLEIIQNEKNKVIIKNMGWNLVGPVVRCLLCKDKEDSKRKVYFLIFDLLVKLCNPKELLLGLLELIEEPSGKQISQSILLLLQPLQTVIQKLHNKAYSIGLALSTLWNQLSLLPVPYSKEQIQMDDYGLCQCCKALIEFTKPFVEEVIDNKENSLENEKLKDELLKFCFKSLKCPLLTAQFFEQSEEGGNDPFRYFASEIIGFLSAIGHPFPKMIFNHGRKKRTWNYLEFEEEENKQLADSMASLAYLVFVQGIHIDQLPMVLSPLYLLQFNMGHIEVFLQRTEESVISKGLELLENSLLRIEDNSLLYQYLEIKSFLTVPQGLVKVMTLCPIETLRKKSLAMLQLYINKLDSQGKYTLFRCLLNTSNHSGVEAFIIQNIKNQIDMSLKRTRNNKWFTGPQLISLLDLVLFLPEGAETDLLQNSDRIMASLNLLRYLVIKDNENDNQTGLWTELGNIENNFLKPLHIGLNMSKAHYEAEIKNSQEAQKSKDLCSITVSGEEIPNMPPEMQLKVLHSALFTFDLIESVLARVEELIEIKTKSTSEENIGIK
GLMN in cells (Fig. S7), sequence (Q92990 whole entry): as above
CFP-RBX1-CUL1^CTD (human), sequence (P62877 whole entry, chain 1 of 2): as the sequence (P62877 whole entry, chain 1 of 3) above
CFP-RBX1-CUL1^CTD (human), sequence (Q13616 411-776, chain 2 of 2, further chain): as the sequence (Q13616 411-776, chain 2 of 3, further chain) above
cellular RBX1 (Fig. S7) (human), sequence (P62877 whole entry): as the sequence (P62877 whole entry, chain 1 of 3) above
CFP-RBX1^RING (human), sequence (P62877 whole entry): as the sequence (P62877 whole entry, chain 1 of 3) above

Substance | percent of cellular RBX1 bound by GLMN [1] | Kd (CFP-RBX1^RING (human)) | Kd [2] | Kd (CFP-RBX1-CUL1^CTD~NEDD8)
GLMN in cells (Fig. S7) (from UniProt Q92990 1-594) (natural protein) | 7 percent |  |  | 
GLMN-YFP (from UniProt Q92990 1-594) (natural protein) |  | 45 nM | 36 nM | 28 nM
